Test results reported in paper PMC10672168, “Invasive Staphylococcus epidermidis uses a unique processive wall teichoic acid glycosyltransferase to evade immune recognition” (Science Advances, 2023).

Columns and labels:
[1] = molecular target: TarM(Se) N203A mutant (S. epidermidis); assay: SEC; Superdex 200 increase 10/30, calibrated column; buffer D: 20 mM triethanolamine pH 7.8 (TarM(Se)_(G117R)) or 8.5 (TarM(Se) and mutant proteins), 250 mM LiCl, 10 mM β-mercaptoethanol, 5% glycerol
[2] = molecular target: TarM(Se) K233A mutant (S. epidermidis); assay: as above
[3] = molecular target: TarM(Se), WTA glycosyltransferase TarM of S. epidermidis, wild type (S. epidermidis); assay: crystal structure
[4] = molecular target: TarM(Se), WTA glycosyltransferase TarM of S. epidermidis, wild type (S. epidermidis); assay: SEC; Superdex 200 increase 10/30, calibrated column; buffer D: 20 mM triethanolamine pH 7.8 (TarM(Se)_(G117R)) or 8.5 (TarM(Se) and mutant proteins), 250 mM LiCl, 10 mM β-mercaptoethanol, 5% glycerol
[5] = molecular target: TarM(Se) Q265A mutant (S. epidermidis); assay: as above
TarM(Se) = conditions: 30 mM ligand; acceptor site; only two RboP units and one phosphate ordered; monomeric mutant
[6] = molecular target: TarM(Se) N255A mutant (S. epidermidis); assay: SEC; Superdex 200 increase 10/30, calibrated column; buffer D: 20 mM triethanolamine pH 7.8 (TarM(Se)_(G117R)) or 8.5 (TarM(Se) and mutant proteins), 250 mM LiCl, 10 mM β-mercaptoethanol, 5% glycerol
[7] = molecular target: TarM(Se) N9A mutant (S. epidermidis); assay: as above
[8] = molecular target: TarM(Se) E10A mutant (S. epidermidis); assay: as above

TarM(Se) N203A mutant (enzyme) showed a stoichiometry N [1] of 3.
Compound TarM(Se) K233A mutant (enzyme) has a stoichiometry N [2] of 3.
With “TarM(Se), WTA glycosyltransferase TarM of S. epidermidis, wild type (enzyme)” the stoichiometry N [3] was 3 and the stoichiometry N [4] was 3.
Compound TarM(Se) Q265A mutant (enzyme) has a stoichiometry N [5] of 3.
For `NCCCCCCOP(=O)(O)OC[C@@H](O)[C@@H](O)[C@@H](O)COP(=O)(O)OC[C@@H](O)[C@@H](O)[C@@H](O)COP(=O)(O)OC[C@@H](O)[C@@H](O)[C@@H](O)COP(=O)(O)OC[C@@H](O)[C@@H](O)[C@@H](O)CO` [4RboP-(CH2)6NH2], the “X-ray crystal structure (cocrystallization)” value (TarM(Se)) was “The 4RboP-(CH2)6NH2 compound was introduced into the TarM(Se)G117R crystals through cocrystallization”.
TarM(Se) N255A mutant (enzyme) showed a stoichiometry N [6] of 3.
Work on TarM(Se) N9A mutant (enzyme) yielded a stoichiometry N [7] of 3.
With TarM(Se) E10A mutant (enzyme) the stoichiometry N [8] was 3.
